Publication PMC2928020 (The Journal of Cell Biology, 2010)
Where no end group is shown, it is not given here. The star is where a group is joined. FITC = O=C1OC2(c3ccc(O)cc3Oc3cc(O)ccc32)c2ccc(NC(=S)*)cc21

Molecular target: SNX27 PDZ domain, wild type (residues 39-131 of rat SNX27) (rat, UniProt Q8K4V4 39-131)
Experiment: fluorescence polarisation

- Kd: 17 ± 1.2 µM
Binder: {FITC}-TNDSLL [FITC-labeled peptide corresponding to the C-terminal six residues of the β2AR (TNDSLL)]
